In patent US20210017257A1:

Tests used:
[1] = molecular target: MABp1-IgG1; assay: flow cytometry: S. aureus clinical isolate OOX incubated with unlabeled MABp1 (negative control), then biotinylated recombinant Fcγ receptor 1, then streptavidin-APC
[2] = molecular target: MABp1-IgG1; assay: flow cytometry: S. aureus strain ATCC #25923 incubated with unlabeled MABp1 (negative control), then biotinylated recombinant Fcγ receptor 1, then streptavidin-APC
[3] = molecular target: SpA in the cell wall of Staphylococcus aureus (strain ATCC #25923 and clinical isolate OOX) (Staphylococcus aureus) (UniProt P38507); assay: flow cytometry: S. aureus clinical isolate OOX incubated with biotinylated antibody (negative control), then streptavidin-APC
[4] = molecular target: SpA in the cell wall of Staphylococcus aureus (strain ATCC #25923 and clinical isolate OOX) (Staphylococcus aureus) (UniProt P38507); assay: flow cytometry: S. aureus strain ATCC #25923 incubated with biotinylated antibody (negative control), then streptavidin-APC
[5] = molecular target: SpA in the cell wall of Staphylococcus aureus (strain ATCC #25923 and clinical isolate OOX) (Staphylococcus aureus) (UniProt P38507); assay: flow cytometry: S. aureus clinical isolate OOX pre-incubated with human sera for 15 minutes, then biotinylated MABp1-IgG3 (isotype-matched negative control), then streptavidin-APC
[6] = molecular target: SpA in the cell wall of Staphylococcus aureus (strain ATCC #25923 and clinical isolate OOX) (Staphylococcus aureus) (UniProt P38507); assay: flow cytometry: S. aureus strain ATCC #25923 by the legend (sheet prints 25935) pre-incubated with human sera for 15 minutes, then biotinylated MABp1-IgG3 (isotype-matched negative control), then streptavidin-APC

Sequence of MABp1-IgG3 (antibody) (VH): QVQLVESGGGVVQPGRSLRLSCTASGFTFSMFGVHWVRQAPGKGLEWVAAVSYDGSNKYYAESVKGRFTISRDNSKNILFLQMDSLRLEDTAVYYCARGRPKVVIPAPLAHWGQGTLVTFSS
Sequence of MABp1-IgG3 (antibody) (VL): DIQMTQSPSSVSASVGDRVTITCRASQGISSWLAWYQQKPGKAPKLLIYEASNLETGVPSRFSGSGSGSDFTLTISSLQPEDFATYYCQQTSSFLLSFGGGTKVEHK
Sequence of biotinylated recombinant Fcγ receptor 1 (P12314 16-292): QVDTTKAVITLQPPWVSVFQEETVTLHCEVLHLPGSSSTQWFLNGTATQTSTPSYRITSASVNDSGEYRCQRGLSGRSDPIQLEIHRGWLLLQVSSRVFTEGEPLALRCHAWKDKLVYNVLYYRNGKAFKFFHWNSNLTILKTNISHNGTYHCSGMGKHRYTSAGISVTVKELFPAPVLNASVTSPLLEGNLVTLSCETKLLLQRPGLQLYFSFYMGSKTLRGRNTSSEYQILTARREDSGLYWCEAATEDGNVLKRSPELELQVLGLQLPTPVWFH

biotinylated recombinant Fcγ receptor 1
Mean:FL4-H [1]: 18.6 | Mean:FL4-H [2]: 19.8

MABp1-IgG1 (antibody)
Mean:FL4-H [3]: 29.8 | Mean:FL4-H [4]: 46.7

MABp1-IgG3 (antibody)
Mean:FL4-H [5]: 19.1 | Mean:FL4-H [6]: 10.3
